The target in assay [1] is T1, Del 52 type mutant CALR protein (full-length) (human, UniProt P27797 18-417).
T1 construct: mature; also called 52-nucleotide deletion type; CALR Del 52
T1 sequence (looked up): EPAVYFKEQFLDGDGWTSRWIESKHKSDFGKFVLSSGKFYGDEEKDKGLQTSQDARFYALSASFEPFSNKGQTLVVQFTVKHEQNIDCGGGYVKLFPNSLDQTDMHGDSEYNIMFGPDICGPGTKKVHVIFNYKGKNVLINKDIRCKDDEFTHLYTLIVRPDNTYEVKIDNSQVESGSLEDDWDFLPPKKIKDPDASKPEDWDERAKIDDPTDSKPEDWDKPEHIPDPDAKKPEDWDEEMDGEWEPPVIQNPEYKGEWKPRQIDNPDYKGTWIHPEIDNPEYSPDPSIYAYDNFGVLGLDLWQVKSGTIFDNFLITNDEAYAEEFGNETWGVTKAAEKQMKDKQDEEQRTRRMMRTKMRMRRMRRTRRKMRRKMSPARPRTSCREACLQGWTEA
As to the kind of experiment: immunoblotting and ELISA on Del 52 and its alanine mutants. The method, then: It was verified that clone B3, C6, and G1 antibodies recognize the amino acid sequence used as an antigen on the mutant CALR protein. The reactivities of the respective antibodies against mutant CALR proteins each having alanine substituted for one amino acid at each position of the amino acids used as the antigen and the amino acids around it were evaluated by immunoblotting (FIG. 13A) and ELISA (FIG. 13B).
The Del 52 type mutant CALR proteins each having alanine (A) substituted for one amino acid at each position of the amino acids in the region from the 367th threonine (T) to the 378th arginine (R) or the protein not having substitution were expressed in HEK 293T cells, and culture supernatants containing secreted mutant CALR proteins were prepared by centrifugation (1,600 g×5 min, 4° C.). The resulting protein solutions were each heat-treated in the presence of SDS and a reducing agent, then developed on a gel by SDS polyacrylamide electrophoresis, electrically transferred on a PVDF membrane, and reacted with a TBS-T solution containing 5% skimmed milk at room temperature for 1 hour, followed by reaction with a 5% BSA/TBS-T solution containing a peroxidase-labeled clone B3, C6, or G1 antibody or a mouse anti-CALR antibody (Abcam plc., Cat #ab22683) at 4° C. overnight. The PVDF membrane reacted with the mouse anti-CALR antibody was washed with a TBS-T solution and was then reacted with a 5% skimmed milk/TBS-T solution containing a peroxidase-labeled anti-mouse IgG antibody (Jackson Immuno Research Inc., Cat #115-035-003) at room temperature for 1 hour. Subsequently, all of the PVDF membranes were washed with a TBS-T solution and were then reacted with a peroxidase luminescence reagent (Thermo Fisher Scientific K.K., Cat #34094). The resulting signals were detected using a FUSION image pickup apparatus (manufactured by Vilber-Lourmat S.A.).
(Immunoblotting shows a protein as a band on a membrane.)

In assay [2] the target is T2, peptide having cysteine at the amino-terminal of the amino acid sequence (RRMMRTKMR) included in SEQ ID NO: 1.
T2 peptide: CRRMMRTKMR
Briefly: SPR.

For assay [3], the target named is T3, peptide having cysteine at the amino-terminal of the amino acid sequence (RRMMRTKMR) included in SEQ ID NO: 1.
T3 construct: Synthetic peptide, analyte in SPR; also called antigen used for production of the antibody
T3 peptide: CRRMMRTKMR
Briefly: SPR (Biacore T200), clone B3 antibody immobilised, peptide at 1.25-20 nM. As for the experimental part:
Sensor chips (GE Healthcare, Cat #BR100530) for surface plasmon resonance analysis were loaded on a surface plasmon resonance analyzer Biacore T200 (GE Healthcare) and were equilibrated with an HBS-EP buffer (GE Healthcare, Cat #BR100669). Clone B3 antibody adjusted to a concentration of 10 μg/mL with Acetate 5.5 (GE Healthcare, Cat #BR100352) was immobilized using an Amine coupling kit (GE Healthcare, Cat #BR100050) at an immobilized amount of 200 RU. Subsequently, surface plasmon resonance was measured using a peptide having cysteine at the amino-terminal of the amino acid sequence ([…]) included in SEQ ID NO: 1 adjusted to concentrations of 20, 10, 5, 2.5, and 1.25 nM with an HBS-EP buffer, and the dissociation constant was acquired with Biacore T200 Evaluation Software.

B1: clone C6 antibody (antibody, V domains shown)
VH: QVQLQQSGAELVKPGSSVKISCKASGYTFTSYFVHWIKQQPGDGLEWIGWIYPGDGDTEYNHKFNGKSTLTADRSSSTAYMQLSSLTSEDSAVYFCARGNYYDGREVMDAWGQGASVTVSS
VL: DVVLTQTPPTLSATIGQSVSISCRSSQSLLDSDGETYLNWLLQRPGQSPQLLIYSVSNLESGVPNRFSGSGSETDFTLKISGMEAEDLGVYYCMQATHGPYTFGAGTKLELK
notes: Rat monoclonal antibody purified from a hybridoma, detected with anti-rat IgG; also called rat clone C6 antibody
On to B1, for which the binding result in assay [1] was “binds”.

B2: clone G1 antibody (antibody, V domains shown)
VH: QVQLQQSGAELVKPGSSVKISCKASGYTFTSYFVHWIKQQPGDGLEWIGWIYPGDGDTEYNQKFNGKATLTADRSSSTAYMQLSSLTSEDSAVYFCARGNYYDGREVMDAWGQGASVTVSS
VL: DVVLTQTPPTLSATIGQSVSISCRSSQSLLDSDGETYLNWLLQRPGQCPQLLIYSVSNLESGVPNRFSGSGSETDFTLKISGVEAEDLGVYYCMQGTHGPYTFGAGTKLELK
notes: Rat monoclonal antibody purified from a hybridoma, detected with anti-rat IgG; also called rat clone G1 antibody
B2: the binding result in assay [1] is listed as “binds”.

B3: clone B3 antibody (antibody, V domains shown)
VH: QVQLQQSGAELVKPGSSVKISCKASGYTFTRNFIHWIKQQPGNGLEWIGWIFPGDGDTEYNQKFNGKATLTADKSSSTAYMQLSSLTSEDSAVYFCARGNYNYEYFDYWGQGVMVTVSS
VL: DIQMTQSPASLSASLGETVSIECLASEDIYSYLAWYQQKPGKSPQLLIFAANRLQDGVPSRFSGSGSGTQFSLKISGMQPEDEGDYFCLQGSKFPYTFGPGTKLELN
notes: Rat monoclonal antibody purified from a hybridoma (WKY/Izm rat x mouse SP2 myeloma), detected with anti-rat IgG; also called rat clone B3 antibody
By Kd is commonly meant the concentration at which binding is half-saturated. In assay [2], B3 came in with a dissociation constant Kd of 0.855 nM. Besides, the binding result in assay [1] and in assay [3] was “binds” throughout.

These data come from patent US20220098290A1 (JUNTENDO EDUCATIONAL FOUNDATION, published 2022).
